Test results: patent US20220064272A1 (TAUC3 BIOLOGICS, published 2022)
Several values for one entry are separate records, joined by “and”; a condition that tells them apart may be missing. Equal values may be shown once.

What was measured:
[1] = molecular target: T1, TauC3 (C-terminally truncated tau fragment ending at aspartate 421 of htau40) (human, UniProt P10636 1-738); test: binding ELISA on coated TauC3, OD650
T1 construct: Generated and purified by Genscript; also called Human TauC3; recombinant TauC3 protein
T1 sequence (P10636 other isoform, or with tags, fused parts or gaps): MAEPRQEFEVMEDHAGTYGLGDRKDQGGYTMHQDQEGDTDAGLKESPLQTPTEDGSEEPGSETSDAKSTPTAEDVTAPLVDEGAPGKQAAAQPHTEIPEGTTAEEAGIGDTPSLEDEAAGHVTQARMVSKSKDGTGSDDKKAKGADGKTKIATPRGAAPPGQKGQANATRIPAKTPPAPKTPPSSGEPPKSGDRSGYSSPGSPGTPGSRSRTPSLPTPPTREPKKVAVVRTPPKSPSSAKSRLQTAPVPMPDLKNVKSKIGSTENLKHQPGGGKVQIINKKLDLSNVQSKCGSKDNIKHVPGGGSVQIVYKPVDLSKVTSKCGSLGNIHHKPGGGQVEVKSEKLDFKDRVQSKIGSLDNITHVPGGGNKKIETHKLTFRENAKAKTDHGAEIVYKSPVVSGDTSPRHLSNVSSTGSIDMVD
Summary of the method: (§1)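 EC50 values come from antibody concentration-response curves in a binding ELISA on coated TauC3 antigen. The chimeric or humanized IgG4κ antibodies were produced in ExpiCHO cells, and binding was measured as absorbance at 650 nm.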

[2] = molecular target: T1, TauC3 (C-terminally truncated tau …); test: binding ELISA on coated TauC3, OD650; remark: listed apart in the source
Summary of the method: as §1

[3] = molecular target: T1, TauC3 (C-terminally truncated tau …); test: binding ELISA on coated TauC3, OD650; left table (HC variants)
Summary of the method: as §1

[4] = molecular target: T1, TauC3 (C-terminally truncated tau …); test: binding ELISA on TauC3 after 21 days at 37 C in PBS or mouse, human, cynomolgus serum, with non-incubated control
Protocol: Purified samples of the chimeric and humanized antibodies were incubated in mouse, human and cynomolgus serum for 21 days. The binding of the Tau01 HMKE, HMKM, HMKN, HMKO, HMKP candidate antibodies which had been incubated in the 3 different serums were compared with an antibody incubated in PBS and a 4° C. positive control sample by binding ELISA to TauC3 (FIG. 37). The Tau01 HMKE, HMKM, HMKN, HMKO, HMKP candidate antibodies retained their binding capability after being incubated in mouse, human and cynomolgus serum.

[5] = molecular target: T1, TauC3 (C-terminally truncated tau …); test: Biacore off-rate ranking, TauC3 amine-coupled on CM5, one antibody concentration; one-phase exponential decay fit
Protocol: (§2) To further evaluate the binding data observed on the Octet, an off-rate ranking experiment was performed on the Biacore 200 instrument. Biacore offers greater selectivity than the Octet and facilitated the immobilization of TauC3 onto a CM5 chip via amine coupling which stabilizes the antigen. This produces higher quality data with stable baselines and good reproducible responses. Once TauC3 is immobilized, one concentration (5 nM) of antibody is added, followed by a dissociation and regeneration step (Section 8.20). The off-rates were fitted using a two-phase decay model (FIG. 25B) or a one phase decay fitting only the second off-rate (FIG. 25A). The candidates were then ranked based on the off-rates obtained using the fits and compared. The data agreed with the Octet results (albeit with a different ranking order), highlighting Tau01 HMKM, HMKO, HMKP, HMKN and HMKE as the humanized variants with the slowest off-rates. The lack of binding of FL Tau to chimeric and a humanized candidate was also confirmed by Biacore by loading the antibody onto a Protein G chip and adding 250 nM FL Tau.

[6] = molecular target: T1, TauC3 (C-terminally truncated tau …); test: Biacore off-rate ranking, TauC3 amine-coupled on CM5, one antibody concentration; two-phase decay fit, slow phase; design: unit not given here
Protocol: as §2

[7] = molecular target: T1, TauC3 (C-terminally truncated tau …); test: binding ELISA on coated TauC3, OD650; remark: listed apart in the source
Summary of the method: as §1

[8] = molecular target: T1, TauC3 (C-terminally truncated tau …); test: binding ELISA on coated TauC3, OD650; remark: listed apart in the source
Summary of the method: as §1

[9] = molecular target: T1, TauC3 (C-terminally truncated tau …); test: binding ELISA on coated TauC3, OD650; right table (HM variants)
Summary of the method: as §1

[10] = molecular target: T1, TauC3 (C-terminally truncated tau …); test: binding ELISA on coated TauC3, OD650; remark: listed apart in the source
Summary of the method: as §1

[11] = molecular target: T1, TauC3 (C-terminally truncated tau …); test: SPR (Biacore) kinetics, TauC3 amine-coupled on CM5, 1:1 global fit
Summary of the method: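 Association rate, dissociation rate and Kd were derived by global fitting of surface plasmon resonance (Biacore) data. The fit used a 1:1 model, with a concentration series of each purified antibody flowed over purified antigen amine-coupled to a CM5 chip.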

[12] = molecular target: T1, TauC3 (C-terminally truncated tau …); test: binding ELISA on coated TauC3, OD650; remark: listed apart in the source
Summary of the method: as §1

[13] = molecular target: T1, TauC3 (C-terminally truncated tau …); test: binding ELISA on coated TauC3, OD650; remark: listed apart in the source
Summary of the method: as §1

[14] = molecular target: T1, TauC3 (C-terminally truncated tau …); test: binding ELISA, TauC3 coated
Summary of the method: as §1

[15] = molecular target: T1, TauC3 (C-terminally truncated tau …); test: binding ELISA on coated TauC3, OD650; remark: listed apart in the source
Summary of the method: as §1

[16] = molecular target: T1, TauC3 (C-terminally truncated tau …); test: Biacore kinetics, TauC3 amine-coupled on CM5, antibody series, 1:1 global fit
Source text: To determine the affinity of the binding interactions, a biacore kinetic assay was developed which involved immobilizing TauC3 on a CM5 chip via amine coupling and injecting a concentration series of the respective antibody over it.

[17] = molecular target: T2, full length Tau (2N4R, htau40) (human, UniProt P10636 1-758); test: binding ELISA on coated FL Tau, OD650
T2 construct: Generated and purified by Genscript; also called FL Tau; FLT
T2 sequence (P10636 other isoform, or with tags, fused parts or gaps limits assumed): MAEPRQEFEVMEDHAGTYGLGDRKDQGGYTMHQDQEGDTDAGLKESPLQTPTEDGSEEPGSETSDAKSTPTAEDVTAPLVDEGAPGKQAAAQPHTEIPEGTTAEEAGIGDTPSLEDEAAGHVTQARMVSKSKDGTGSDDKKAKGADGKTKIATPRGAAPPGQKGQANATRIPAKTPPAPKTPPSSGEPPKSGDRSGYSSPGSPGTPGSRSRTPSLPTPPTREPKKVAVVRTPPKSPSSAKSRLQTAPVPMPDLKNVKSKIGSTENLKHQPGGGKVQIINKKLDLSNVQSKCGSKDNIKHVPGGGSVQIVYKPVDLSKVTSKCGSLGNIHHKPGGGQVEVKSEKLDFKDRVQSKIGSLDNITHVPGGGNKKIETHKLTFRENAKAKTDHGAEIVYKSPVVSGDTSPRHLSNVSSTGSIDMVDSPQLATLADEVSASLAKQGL
Summary of the method: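 Binding ELISA on coated full-length tau antigen, which was made and purified by Genscript. Antibody binding was read as absorbance at 650 nm.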

[18] = molecular target: T2, full length Tau (2N4R, htau40); test: Octet, antibody on Protein G sensor, FL Tau in solution
Summary of the method: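 Antibody loaded on Protein G biosensors was tested by Bio-Layer Interferometry (OctetRed96) for binding to purified full-length tau in solution. The tau was made and purified by Genscript. Full-length tau was applied at 500 nM. The result is the binding signal response in nm.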

[19] = molecular target: T1, TauC3 (C-terminally truncated tau …); test: binding ELISA, TauC3 coated; FIG. 16 ELISA
Summary of the method: as §1

[20] = molecular target: T1, TauC3 (C-terminally truncated tau …); test: binding ELISA on coated TauC3, OD650; remark: listed apart in the source
Summary of the method: as §1

B1: MoTau01 HuG4K chimeric antibody (antibody, V domains shown)
VH: EVQVVESGGGLVQPKGSLKLSCAASGFTFNTYAMNWVRQAPGKGLEWVARIRSKSNNYATYYADSVKDRFTISRDDSQSMVYLQMNNLKTEDTAMYYCVGGGDFWGQGTALTVSS
VL: DIQMTQSPSSLSASLGERVSLTCRASQEISVYLSWFQQKPDGTIKRLIYGAFTLDSGVPKRFSGSRSGSDYSLTISSLESEDFADYYCLQYVRYPWTFGGGTKLEIK
notes: Mouse variable regions with human IgG4 / kappa constant regions (pHuG4, pHuK); also called chimeric Tau01
[1]
  EC50: 0.58 nM and 0.54 nM and 0.63 nM
[2]
  EC50: 0.474 nM
[3]
  EC50: 0.438 nM and 0.483 nM and 0.538 nM and 0.73 nM
[4]
  EC50 (read off the curve): ~0.5 nM
[5]
  koff: 0.000414 s⁻¹
[6]
  Kslow: 0.000414
[7]
  EC50: 0.474 nM
[8]
  EC50: 0.724 nM
[9]
  EC50: 0.438 nM and 0.483 nM and 0.538 nM and 0.73 nM
[10]
  EC50: 0.724 nM
[11]
  Kd: 0.057 nM
  koff: 0.000741 s⁻¹
  kon: 1.29e+07 M⁻¹ s⁻¹
[12]
  EC50: 0.474 nM
[13]
  EC50: 0.71 nM
[14]
  EC50: 0.7 nM and 0.65 nM
[15]
  EC50: 0.298 nM and 0.313 nM
[16]
  Kd: 0.0574 nM
[17]
  binding result: no binding (tested: about 30 nM)

B2: Tau01 HMKP HuG4k (antibody, V domains shown)
VH: LVQLVESGGGLVQPGGSLKLSCAASGFTFNTYAMNWVRQASGKGLEWVARIRSKSNNYATYYAASVKGRFTISRDDSKSMAYLQMDSLKTEDTAVYYCVGGGDFWGQGTLVTVSS
VL: DIQMTQSPSSLSASVGDRVTITCRASQEISVYLGWFQQKPGKAPKRLIYGAFKLQSGVPSRFSGSRSGTEYTLTISSLQPEDFATYYCLQYVRYPWTFGGGTKVEIK
notes: human IgG4 kappa (HuG4K); Lead candidate
[4]
  EC50 (read off the curve): ~0.6 nM
[5]
  koff: 0.000811 s⁻¹
[6]
  Kslow: 0.000777
[9]
  EC50: 0.499 nM
[11]
  Kd: 0.013 nM
  koff: 0.00186 s⁻¹
  kon: 1.43e+08 M⁻¹ s⁻¹
[18]
  binding result: no binding
[16]
  koff: 0.00186 s⁻¹
  kon: 1.43e+08 M⁻¹ s⁻¹

B3: Tau01 HFKB (antibody, V domains shown)
VH: LVQLVESGGGLVQPGGSLKLSCAASGFTFNTYAMNWVRQASGKGLEWVGRIRSKSNNYATAYAASVKGRFTISRDDSKNTAYLQMDSLKTEDTAVYYCVGGGDFWGQGTLVTVSS
VL: DIQMTQSPSSLSASVGDRVTITCRASQEISVYLSWFQQKPGKAIKRLIYGAFTLQSGVPSRFSGSRSGSEYTLTISSLQPEDFATYYCLQYVRYPWTFGGGTKVEIK
notes: human IgG4 kappa (HuG4K)
[15]
  EC50: 2.93 nM

B4: Tau01 HMKO HuG4k (antibody, V domains shown)
VH: LVQLVESGGGLVQPGGSLKLSCAASGFTFNTYAMNWVRQASGKGLEWVARIRSKSNNYATYYAASVKGRFTISRDDSKSMAYLQMDSLKTEDTAVYYCVGGGDFWGQGTLVTVSS
VL: DIQMTQSPSSLSASVGDRVTITCRASQEISVYLGWYQQKPGKAPKRLIYGAFSLQSGVPSRFSGSRSGTEYTLTISSLQPEDFATYYCLQYVRYPWTFGGGTKVEIK
notes: human IgG4 kappa (HuG4K)
[4]
  EC50 (read off the curve): ~0.7 nM
[5]
  koff: 0.000473 s⁻¹
[6]
  Kslow: 0.000349
[9]
  EC50: 0.583 nM
[11]
  Kd: 0.059 nM
  koff: 0.00352 s⁻¹
  kon: 5.93e+07 M⁻¹ s⁻¹
[18]
  binding result: no binding
[16]
  Kd: 0.0594 nM
  koff: 0.00352 s⁻¹

B5: Tau01 HBKB (antibody, V domains shown)
VH: EVQVVESGGGLVQPGGSLKLSCAASGFTFNTYAMNWVRQASGKGLEWVARIRSKSNNYATYYADSVKGRFTISRDDSKSMVYLQMDSLKTEDTAVYYCVGGGDFWGQGTLVTVSS
VL: DIQMTQSPSSLSASVGDRVTITCRASQEISVYLSWFQQKPGKAIKRLIYGAFTLQSGVPSRFSGSRSGSEYTLTISSLQPEDFATYYCLQYVRYPWTFGGGTKVEIK
notes: human IgG4 kappa (HuG4K)
[2]
  EC50: 0.402 nM
[7]
  EC50: 0.402 nM
[19]
  EC50: 0.81 nM
[8]
  EC50: 0.767 nM
[12]
  EC50: 0.402 nM
[14]
  EC50: 0.78 nM

B6: Tau01 HBKC (antibody, V domains shown)
VH: EVQVVESGGGLVQPGGSLKLSCAASGFTFNTYAMNWVRQASGKGLEWVARIRSKSNNYATYYADSVKGRFTISRDDSKSMVYLQMDSLKTEDTAVYYCVGGGDFWGQGTLVTVSS
VL: DIQMTQSPSSLSASVGDRVTITCRASQEISVYLSWFQQKPGKAPKRLIYGAFKLQSGVPSRFSGSRSGTEYTLTISSLQPEDFATYYCLQYVRYPWTFGGGTKVEIK
notes: human IgG4 kappa (HuG4K)
[1]
  EC50: 0.99 nM
[19]
  EC50: 0.84 nM

B7: Tau01 HBKA (antibody, V domains shown)
VH: EVQVVESGGGLVQPGGSLKLSCAASGFTFNTYAMNWVRQASGKGLEWVARIRSKSNNYATYYADSVKGRFTISRDDSKSMVYLQMDSLKTEDTAVYYCVGGGDFWGQGTLVTVSS
VL: DIQMTQSPSSLSASVGDRVTITCRASQEISVYLGWYQQKPGKAPKRLIYGAFKLQSGVPSRFSGSRSGTEFTLTISSLQPEDFATYYCLQYVRYPWTFGGGTKVEIK
notes: human IgG4 kappa (HuG4K)
[1]
  EC50: 1.39 nM
[20]
  EC50: 0.92 nM
[8]
  EC50: 0.795 nM
